The nature of the data set: yeast display, Sf9 membrane polyspecificity reagent, FACS + sequencing; frameworks hold sequencing errors. The method, boiled down: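 In a synthetic yeast display library (Saccharomyces cerevisiae BJ5465), nanobody expression was induced with galactose for 36–48 hours. FACS gates were set low and high (top ~1%) using anti-HA fluorescence for expression and streptavidin fluorescence for binding of the Sf9 membrane reagent. Each polyreactivity label is drawn from the gate of origin.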
As for “QVQLVESGGGLVQAGGSLRLSCAASGFIFFINDMGWYRQAPGKERELVAAISWSGGSTYYADSVKGRFTISRDNAKNTVYLQMNSLKPEDTAVYYCAADWLIYDLSRFDYWGQGTQVTVSS”, the “polyreactivity (PSR sort gate)” value was “low polyreactivity”.
Take “QVQLVESGGGLVQAGGSLRLSCAASGFIFFPYTMGWYRQAPGKERELVAAITNGGSTSYADSVKGRFTISRDNAKNTVYLQMNSLKPEDTAVYYCAADLGRNLLHTFYYWGQGTQVTVSS”: the “polyreactivity (PSR sort gate)” value is recorded as “low polyreactivity”.
In the case of “QVQLVESGGGLVQAGGSLRLSCAASGFIFFVNAMGWYRQAPGKEREFVATITGSGGSTYYADSVKGRFTISRDNAKNTVYLQMYSLKPEDTAVYYCNAETYIDLRGKFPVEYDYWGQGTQVTVSS” it was “low polyreactivity”; in that of “QVQLVESGGGLVQAGGSLRLSCAASGFIFGANAMGWYRPAPGKERELVAAITWSAGRTYYADSVKGRFTISRVNAKNTVYLKMNSLKREDSAVYYCAKQRARQSPEVGYWGQGTQVTVSS”, “high polyreactivity”; in that of “QVQLVESGGGLVQAGGSLRLSCAASGFIFGAYSMGWYRQAPGKERELVADITQNSGSTYYADSVKGRFTISRDNAKNTVYLQMNSLKPEDTAVYYCNAPPGTFQWQGHSDYWGQGTQVTVSS”, “low polyreactivity”.
As for “QVQLVESGGGLVQAGGSLRLSCAASGFIFGDYAMGWYRQAPGKERELVAAINYSGGSTYYADSVKGRFTISRDNAKNTGYLQMNSLKPEDTAVYYCAALIYGLVGWGQGTQVTVSS”, the “polyreactivity (PSR sort gate)” value is recorded as “low polyreactivity”.
Take “QVQLVESGGGLVQAGGSLRLSCAASGFIFGFYAMGWYIQAPGKERELVAAISGGGGRTNYADSVKGRFTISRDYAKNTVYLQMNSLNPEDTAVYYCAATPGRRRYRYYYWGQGTQVTVSS”: the “polyreactivity (PSR sort gate)” value is on record as “high polyreactivity”.
Regarding “QVQLVESGGGLVQAGGSLRLSCAASGFIFGFYAMGWYRQAPGKERELVAAISWSGGSTYYADSVKGRFTISRDNAKNTVYLQMNSLKPEDTAGYYCAAYFYYLDDAVTYDYWGQGTQVTVSS”, the “polyreactivity (PSR sort gate)” value is “low polyreactivity”.
“QVQLVESGGGLVQAGGSLRLSCAASGFIFGGYAMGWYRQAPGKEREFVAAIRQRGGSTYYADSVKGRFTISRDNAKNTVYLQMNSLKPEDTAVYFCAATVRAVQASVRYGYWGQGTQVTVSS”: the “polyreactivity (PSR sort gate)” value is given as “high polyreactivity”.
For “QVQLVESGGGLVQAGGSLRLSCAASGFIFGGYAMGWYRQAPGKERELVAAISSSGGSTYYADSVKGRFTISRDNAKNTVYLQMNSLKPEDTAVYYCAKVGWSRRYYYWGQGTQVTVSS”, the “polyreactivity (PSR sort gate)” value is listed as “high polyreactivity”.
As to “QVQLVESGGGLVQAGGSLRLSCAASGFIFGGYAMGWYRQAPGKERELVAAITWSGGNTYYADSVKGRFTISRDNAKNTVYLQMNSLKPEDTAVYYCAADYWTKYGYWGQGTQVTVSS”, the “polyreactivity (PSR sort gate)” value is “low polyreactivity”.
For the sequence “QVQLVESGGGLVQAGGSLRLSCAASGFIFGKNDMGWYRQAPGKERELVAAITIGGSTNYADSVKGRFTISRDNAKNTVYLQMNSLTPEDTAVYYCGADATSLYNYWGLGTQVTVSS”, the “polyreactivity (PSR sort gate)” value is “low polyreactivity”.
Turning to “QVQLVESGGGLVQAGGSLRLSCAASGFIFGLYAMGWYRQAPGKEREFVAAISWSGGSTYYADSVKGRFTISRDNAKNTVYLQMNSLKPEDTAVYYCAREYHGDSRRYDYWGQGTQVTVSS”, the “polyreactivity (PSR sort gate)” value is on record as “high polyreactivity”.
As to “QVQLVESGGGLVQAGGSLRLSCAASGFIFGNYAMGWYRQAAGNERELVAAISQRGGTTYYADSVKGRFTISRDNAKNTVYLQMNSLKPEDTAVYYCKAYYIGYYVDYEYWGQGTQVTVSS”, the “polyreactivity (PSR sort gate)” value was “high polyreactivity”.
The same measure for “QVQLVESGGGLVQAGGSLRLSCAASGFIFGPYAMGWYRQAPGKERELVAAISRRGGSTYYADSVKGRFTISRDNAKNTVYLHMNSLKPEDTAVYYCATAGWGEAEGGYWGQGTQVTVSS”: “high polyreactivity”.
The same measure for “QVQLVESGGGLVQAGGSLRLSCAASGFIFGRNTMGWYIQAPGKERELVAAITSGGSTNYADSVKGRFTISRDNAKNTVYLQMNSLKPEDTAVYYCAAEVSTYWTLYDYWGQGTQVTVSS”: “high polyreactivity”; for “QVQLVESGGGLVQAGGSLRLSCAASGFIFGRYAMGWYRQAPGKERELVAAISRSGARTYYADSVKGRFTISRDNAKNTVYLQMNSLKPEDTAVYYCARYQPRVSFDYWGQGTQVTVSS”: “high polyreactivity”.
On to “QVQLVESGGGLVQAGGSLRLSCAASGFIFGSNAMGWYRQAPGQERELVAAIDSSGGRTNYADSVKGRFTISRDNAKNTVYLQMNSLKPEDTAVYYCNVYRWSQLFEYDYWGQGTQVTVSS”, for which the “polyreactivity (PSR sort gate)” value is reported as “high polyreactivity”.
“QVQLVESGGGLVQAGGSLRLSCAASGFIFGSNVMGWYRQAPGKERELVAAISRSGGSTYYADSVKGRFTISRDNAKNTVYLQMNSLKPEDTAVYYCNKLAVGRSRTGDYWGQGTQVTVSS”: the “polyreactivity (PSR sort gate)” value is listed as “high polyreactivity”.
In the case of “QVQLVESGGGLVQAGGSLRLSCAASGFIFGSYAMGWYRQAPGKERELVAAITSDGNTDYADSVKGRFTISRDNAKNTVYLQMNSLKPEDTAVYYCATDWVDHYDYWGQGTQVTVSS” it was “low polyreactivity”.
For “QVQLVESGGGLVQAGGSLRLSCAASGFIFGSYAMGWYRQAPGNERELVAAISDSGDSTYYADSVKGRFTISRDNAKNTVSLQLTRLKPEDTAVYYCNRGYRWRRYENYYWGQVTQVTVSS”, the “polyreactivity (PSR sort gate)” value is “high polyreactivity”.
The same measure for “QVQLVESGGGLVQAGGSLRLSCAASGFIFGTYAMGWYRQAPGKERELVAAISQSGGRTYYADSVKGRFTISRDNAKNTVYLQMNSLKPEDTAVYYCAAYRYVRYDYWGQGTQVTVSS”: “high polyreactivity”; for “QVQLVESGGGLVQAGGSLRLSCAASGFIFGVYAMGWYRQAPGKERELVAAISRSGGSTYYADSVKGRFTISRDNAKNTVYLQMNSLKPEDTAVYYCAVRGSWYSEHNYWGQGTQVTVSS”: “high polyreactivity”; for “QVQLVESGGGLVQAGGSLRLSCAASGFIFGYNAMGWYRQAPGKERELLAAITWIGGTTYYADSVKGRFTISRDNAKNTVYLQMNSLNPEDTAVYYCARQRSYGRYSYSYVYEYWGQGTLVTVSS”: “high polyreactivity”.
In the case of “QVQLVESGGGLVQAGGSLRLSCAASGFIFGYNAMGWYRQAPGKERELVAAISYSGVSTYYADSVKGRFTISRDNAKNTVYLQMNSLKPEDTAVYYCAARPIGYKPRGEYDYWGQGTQVTVSS” it was “high polyreactivity”.
On to “QVQLVESGGGLVQAGGSLRLSCAASGFIFGYNAMGWYRQAPGKERELVAAITSRGDRTYYADSVKGRFTISRDNAKNTVYLQMNSLKPEDTAVYYCAKATRGYRSPYGSIGYYYWGQGTQVTVSS”, for which the “polyreactivity (PSR sort gate)” value is recorded as “high polyreactivity”.
With “QVQLVESGGGLVQAGGSLRLSCAASGFIFGYNAMGWYRQAPGKERELVATISWSGGSTYYADSVKGRFTISRDNAKNTVYFQMNSLKPEDTAVYYCAAEGWERLGCVSWVTVDYWGQGTQVTVSS”, the “polyreactivity (PSR sort gate)” value is reported as “low polyreactivity”.
On to “QVQLVESGGGLVQAGGSLRLSCAASGFIFGYYAMGWYRQAPGKERELVAAISKSGGRTRYADSVKGRFTISRDNAKNTVYLQMNSLKPEDTAVYYCATYDPARSTQGYDYWGQGTQVTVSS”, for which the “polyreactivity (PSR sort gate)” value is on record as “high polyreactivity”.
As to “QVQLVESGGGLVQAGGSLRLSCAASGFIFGYYAMGWYRQAPGKERELVAVISRGGGSTHYADSVKGRFTISRDNAKNTVYLQMNSLKPEDTAVYYCAAQLGRRSATYYYWGQGTQVTVSS”, the “polyreactivity (PSR sort gate)” value is listed as “high polyreactivity”.
In the case of “QVQLVESGGGLVQAGGSLRLSCAASGFIFGYYTMGWYRQAPGKERELVAAISSRGGSTYYADSVKGRFTISRDNAKNTVYLQMNSLKPEDTAVYYCAKRSTYTGSWWERGYWGQGTQVTVSS” it was “high polyreactivity”.
In the case of “QVQLVESGGGLVQAGGSLRLSCAASGFIFGYYVMGWYRQAPGKERELVAAISGSGGRTYYADSVKGRFTISRDNAKNNVYLQMNSLKPEDTAVYYCNAVAFYRDYNYWGQGTQVTVSS”, the “polyreactivity (PSR sort gate)” value is listed as “high polyreactivity”.
Take “QVQLVESGGGLVQAGGSLRLSCAASGFIFHGYTMGWYRQAPGKERELVAGISFTGGSTYYADSVKGRFTISRDNAKNTVYLQMNSLKPEDTAVYYCAATYSSYWARYYYWGQGTQVTVSS”: the “polyreactivity (PSR sort gate)” value is “high polyreactivity”.
With “QVQLVESGGGLVQAGGSLRLSCAASGFIFHKYAMGWYRQAPGKERELVARITGSGASTFYADSVKGRFTISRDNAKNTVYLQMNSLKPEDTAVYYCAATIGSLLKYNRHRYYYWGQGTQVTVSS”, the “polyreactivity (PSR sort gate)” value is on record as “high polyreactivity”.
In the case of “QVQLVESGGGLVQAGGSLRLSCAASGFIFHNYAMGWSRQAPGKERELVAAISWSGSRTYYADSVKGRFTISRDNAKNTVYLQMNSLKPEDTAVYYCNAPGSPVVQQPGYYWGQGTQVTVSS” it was “low polyreactivity”; in that of “QVQLVESGGGLVQAGGSLRLSCAASGFIFHRYAMGGYRQAPGKERELVASITRSGGSTYYADSVKGRFTISRDNAKNTVYLQMNSLKPEDTAVYYCAAQLPSYYKYPRHDYWGQGTQVTVSS”, “high polyreactivity”.
As to “QVQLVESGGGLVQAGGSLRLSCAASGFIFHRYAMGWYRQAPGKERELVAAISRRGGSTYYADSVKGRFTISRDNAKNTVYLQMNSLKPEDTAVYYCARTVGDRTLLESDSWGQGTQVTVSS”, the “polyreactivity (PSR sort gate)” value is reported as “high polyreactivity”.
The same measure for “QVQLVESGGGLVQAGGSLRLSCAASGFIFHVYAMGWYRQAPGKERELVAAISGTGGSTYYADSVKGRFTISRDTALNTVSLQMNSLKPEDTAVYYYKAERSGNGYCGQGTQVTVSS”: “high polyreactivity”; for “QVQLVESGGGLVQAGGSLRLSCAASGFIFHYNAMGWYRPAPGKERELVAAITSGDSTDYADSVKGRFTISRDNAKNTVYLQMNSLKREDTAVYYCAAAEGYLSKYENDYWGQGTQVTVSS”: “low polyreactivity”; for “QVQLVESGGGLVQAGGSLRLSCAASGFIFIAYAMGWYRQAPGKERELVAAISKSGTRTYYADSVKGRFTISRDNAKNTVYLQMNSLKPEDTAVYYCATYSTYNKGTHGDYWGQGTQVTVSS”: “high polyreactivity”.
In the case of “QVQLVESGGGLVQAGGSLRLSCAASGFIFIINAMGWYRQAPGKEREFVAAITGSGGSTYYADSVKGRFTISRDNAKNTVYLQMNSLKPEDTAVYYCAKVGPYYSGKVYGRTYYSRYGYWGQGTQVTVSS” it was “low polyreactivity”.
Take “QVQLVESGGGLVQAGGSLRLSCAASGFIFIRYAMGWYIQAPGKERELVASSTGRGGSTYYADSVKVRFTISRDNAKNTVYLQMNSLKPEDTAVYYCAAYYRYPTGWRWGGYYLYDYWGQGTQVTVSS”: the “polyreactivity (PSR sort gate)” value was “high polyreactivity”.

The values above are taken from the nanobody polyreactivity screen of Harvey et al. (2022).
